{"source": "patent US20210318312", "key": {"[1]": {"target": "T1, DLAT K259 Acetyl peptide", "T1 chain": "EIETDKATIGW"}, "[2]": {"target": "T2, H3 K9 Biotinyl peptide", "T2 chain": "KQTARKSTGGWW"}, "[3]": {"target": "T3, H3 K9 Acetyl peptide", "T3 chain": "KQTARKSTGGWW"}, "[4]": {"target": "MCD K471 Acetyl peptide"}, "[5]": {"target": "purified porcine heart pyruvate dehydrogenase (Sigma-Aldrich, cat. #P7032)"}, "[6]": {"target": "T4, DLAT K259 Lipoyl peptide", "T4 chain": "EIETDKATIGWW"}, "[7]": {"target": "T5, lipoyl-modified DLAT peptide of the LC-MS deacylation assay", "T5 chain": "EIETDKATIGWW"}, "[8]": {"target": "T6, H3 K9 Lipoyl peptide", "T6 chain": "KQTARKSTGGWW"}, "[9]": {"target": "T7, lipoyl-modified PDHX peptide", "T7 chain": "EIETDKAVVTWW"}}}
{"protein": "recombinant SIRT4 (N-terminally truncated human Sirt4, 33-314 of SEQ ID NO: 2) (protein) VPASPPLDPEKVKELQRFITLSKRLLVMTGAGISTESGIPDYRSEKVGLYARTDRRPIQHGDFVRSAPIRQRYWARNFVGWPQFSSHQPNPAHWALSTWEKLGKLYWLVTQNVDALHTKAGSRRLTELHGCMDRVLCLDCGEQTPRGVLQERFQVLNPTWSAEAHGLAPDGDVFLSEEQVRSFQVPTCVQCGGHLKPDVVFFGDTVNPDKVDFVHKRVKEADSLLVVGSSLQVYSGYRFILTAWEKKLPIAILNIGPTRSDDLACLKLNSRCGELLPLIDPC", "values": [{"measurement": "Km", "setting": "[1]", "result": "ND* (>2500)"}, {"measurement": "catalytic efficiency, fold lower than DLAT lipoyl", "setting": "[1]", "result": "this efficiency was still 38-fold lower than DLAT lipoyl"}, {"measurement": "kcat", "setting": "[1]", "result": 0.0011, "unit": "s⁻¹"}, {"measurement": "kcat/Km", "setting": "[1]", "result": 0.2, "unit": "s^-1M^-1"}, {"measurement": "Km", "setting": "[2]", "result": 719, "unit": "µM"}, {"measurement": "LC-MS-based deacylation assay, hydrolysis of the acyl-lysine modification", "setting": "[2]", "result": "SIRT4 was able to hydrolyze all three modifications"}, {"measurement": "catalytic efficiency, fold (another experiment)", "setting": "[2]", "result": "biotinyl (9-fold)"}, {"measurement": "catalytic efficiency, fold against acetylated H3K9", "setting": "[2]", "result": "biotinyl (SEQ ID NO: 4) (11-fold)"}, {"measurement": "kcat", "setting": "[2]", "result": 0.0005, "unit": "s⁻¹"}, {"measurement": "kcat/Km", "setting": "[2]", "result": 0.74, "unit": "s^-1M^-1"}, {"measurement": "relative amount of unmodified product generated using 5 µM SIRT4", "setting": "[2]", "result": "3% (biotinyl-SEQ ID NO: 4)"}, {"measurement": "Km", "setting": "[3]", "result": "ND* (>2500)"}, {"measurement": "LC-MS-based deacylation assay, hydrolysis of the acyl-lysine modification", "setting": "[3]", "result": "SIRT4 was able to hydrolyze all three modifications"}, {"measurement": "kcat/Km", "setting": "[3]", "result": 0.083, "unit": "s^-1M^-1"}, {"measurement": "relative amount of unmodified product generated using 5 µM SIRT4", "setting": "[3]", "result": "0.3% (acetyl-SEQ ID NO: 3)"}, {"measurement": "Km", "setting": "[4]", "result": "ND (>2500)"}, {"measurement": "kcat/Km", "setting": "[4]", "result": 0.0064, "unit": "s^-1M^-1"}, {"measurement": "PDH activity, immuno-capture colorimetric assay", "setting": "[5]", "result": "only active SIRT4 was able to attenuate PDH activity"}, {"measurement": "Km", "setting": "[6]", "result": 239, "unit": "µM"}, {"measurement": "catalytic efficiency, fold against H3K9 lipoyl", "setting": "[6]", "result": "3.5-fold increased efficiency compared to H3K9 lipoyl"}, {"measurement": "catalytic efficiency, fold against H3K9 lipoyl (another experiment)", "setting": "[6]", "result": "3.3-fold increase in efficiency compared to H3K9 lipoyl"}, {"measurement": "catalytic efficiency, fold against deacetylation of MCD", "setting": "[6]", "result": "˜1270-fold more efficient at hydrolyzing the DLAT lipoamide"}, {"measurement": "kcat", "setting": "[6]", "result": 0.0016, "unit": "s⁻¹"}, {"measurement": "kcat/Km", "setting": "[6]", "result": 7.65, "unit": "s^-1M^-1"}, {"measurement": "proportion of unmodified peptide generated following reaction", "setting": "[7]", "result": "increased to 33% for DLAT (SEQ ID NO: 11)"}, {"measurement": "Km", "setting": "[8]", "result": 814, "unit": "µM"}, {"measurement": "LC-MS-based deacylation assay, hydrolysis of the acyl-lysine modification", "setting": "[8]", "result": "SIRT4 was able to hydrolyze all three modifications"}, {"measurement": "catalytic efficiency, fold (another experiment)", "setting": "[8]", "result": "lipoyl (28-fold)"}, {"measurement": "catalytic efficiency, fold against acetylated H3K9", "setting": "[8]", "result": "lipoyl (SEQ ID NO: 3 (30-fold)"}, {"measurement": "kcat", "setting": "[8]", "result": 0.0019, "unit": "s⁻¹"}, {"measurement": "kcat/Km", "setting": "[8]", "result": 2.3, "unit": "s^-1M^-1"}, {"measurement": "relative amount of unmodified product generated using 5 µM SIRT4", "setting": "[8]", "result": "11% (lipoyl-SEQ ID NO: 3)"}, {"measurement": "proportion of unmodified peptide generated following reaction", "setting": "[9]", "result": "42% for PDHX (SEQ ID NO: 13)"}]}
{"protein": "recombinant SIRT4 H161Y catalytic mutant (protein) VPASPPLDPEKVKELQRFITLSKRLLVMTGAGISTESGIPDYRSEKVGLYARTDRRPIQHGDFVRSAPIRQRYWARNFVGWPQFSSHQPNPAHWALSTWEKLGKLYWLVTQNVDALHTKAGSRRLTELYGCMDRVLCLDCGEQTPRGVLQERFQVLNPTWSAEAHGLAPDGDVFLSEEQVRSFQVPTCVQCGGHLKPDVVFFGDTVNPDKVDFVHKRVKEADSLLVVGSSLQVYSGYRFILTAWEKKLPIAILNIGPTRSDDLACLKLNSRCGELLPLIDPC", "values": [{"measurement": "LC-MS-based deacylation assay", "setting": "[2]", "result": "observed no significant activity for any of these substrates"}, {"measurement": "LC-MS-based deacylation assay", "setting": "[3]", "result": "observed no significant activity for any of these substrates"}, {"measurement": "PDH activity, immuno-capture colorimetric assay", "setting": "[5]", "result": "only active SIRT4 was able to attenuate PDH activity"}, {"measurement": "LC-MS-based deacylation assay", "setting": "[8]", "result": "observed no significant activity for any of these substrates"}]}
{"protein": "recombinant SIRT3 (Sigma, cat. #SRP0117-100UG) (protein) ISFSVGASSVVGSGGSSDKGKLSLQDVAELIRARACQRVVVMVGAGISTPSGIPDFRSPGSGLYSNLQQYDLPYPEAIFELPFFFHNPKPFFTLAKELYPGNYKPNVTHYFLRLLHDKGLLLRLYTQNIDGLERVSGIPASKLVEAHGTFASATCTVCQRPFPGEDIRADVMADRVPRCPVCTGVVKPDIVFFGEPLPQRFLLHVVDFPMADLLLILGTSLEVEPFASLTEAVRSSVPRLLINRDLVGPLAWHPRSRDVAQLGDVVHGVESLVELLGWTEEMRDLVQRETGKLDGPDK", "values": [{"measurement": "catalytic efficiency, fold lower than for DLAT acetyl", "setting": "[6]", "result": "this efficiency was 13-fold lower than for DLAT acetyl"}, {"measurement": "in vitro deacylation kinetics", "setting": "[6]", "result": "SIRT3 showed some enzymatic activity towards DLAT lipoyl"}]}
